# From patent US11497805B2, “Toll-like receptor 2 agonists and vaccines and uses thereof” (The Provost, Fellows, Foundation Scholars & the Other …, priority 2014, dated 2022)
# Experiments:
# [1] = test system: dendritic cells from C3H/HeJ mice; test: BP2992 maturation and cytokine production by dendritic cells; type: cell-based; details: 24 h
# Description: Lane 1: 5 ng BP2992; lane 2: 10 ng BP2992.
# [2] = test system: TLR2; test: BP2992 activity as TLR2 ligand (data not shown)
# Source text: C-terminal histidine versions of the putative lipoproteins were constructed and expressed in E. coli by IPTG induction. BP1569 and BP2992 were successfully expressed and purified by nickel affinity followed by ion-exchange chromatography. […] Therefore, the inventors adopted a strategy of carrying out all initial studies with lipoproteins in TLR4 defective cells or mice and then synthesized lipopeptide versions of the lipoproteins for more thorough immunological analysis.
# [3] = molecular target: T1, TLR2 (Mus musculus, UniProt Q9EPQ1+Q9QUN7); test: BP2992 cytokine production by DC with anti-TLR2 antibody; type: cell-based, mice; details: with or without anti-TLR2 T2.5 2.5 μg/ml, 24 hours
# T1 construct: Bone marrow derived dendritic cells (DCs) were prepared by culturing bone marrow cells obtained from the femur and tibia of mice; endogenous in cells; host or cells: bone marrow-derived dendritic cells from C3H/HeJ mice (A3, A25) or C57BL/6 mice (A13)
# T1 sequence (Q9QUN7 25-784): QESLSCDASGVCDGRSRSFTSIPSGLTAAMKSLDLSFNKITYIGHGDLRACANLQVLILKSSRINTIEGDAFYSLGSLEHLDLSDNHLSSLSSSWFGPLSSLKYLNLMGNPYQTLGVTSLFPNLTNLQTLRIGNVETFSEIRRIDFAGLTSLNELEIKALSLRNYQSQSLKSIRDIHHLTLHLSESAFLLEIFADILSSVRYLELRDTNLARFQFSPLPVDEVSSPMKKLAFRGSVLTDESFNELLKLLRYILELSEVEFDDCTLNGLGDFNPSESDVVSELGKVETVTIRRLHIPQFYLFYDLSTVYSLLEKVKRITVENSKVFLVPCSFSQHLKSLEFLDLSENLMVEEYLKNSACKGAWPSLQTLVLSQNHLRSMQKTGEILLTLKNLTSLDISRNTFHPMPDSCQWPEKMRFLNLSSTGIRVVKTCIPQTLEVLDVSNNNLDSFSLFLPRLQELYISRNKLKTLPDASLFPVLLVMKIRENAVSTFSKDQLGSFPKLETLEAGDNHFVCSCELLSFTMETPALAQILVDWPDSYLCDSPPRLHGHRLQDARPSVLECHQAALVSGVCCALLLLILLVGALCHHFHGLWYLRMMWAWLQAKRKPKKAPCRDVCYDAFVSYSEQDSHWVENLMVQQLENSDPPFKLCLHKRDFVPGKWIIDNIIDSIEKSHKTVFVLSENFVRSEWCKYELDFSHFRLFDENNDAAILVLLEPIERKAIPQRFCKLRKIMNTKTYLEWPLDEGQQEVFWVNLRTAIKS
# T1 sequence (Q9EPQ1 26-795): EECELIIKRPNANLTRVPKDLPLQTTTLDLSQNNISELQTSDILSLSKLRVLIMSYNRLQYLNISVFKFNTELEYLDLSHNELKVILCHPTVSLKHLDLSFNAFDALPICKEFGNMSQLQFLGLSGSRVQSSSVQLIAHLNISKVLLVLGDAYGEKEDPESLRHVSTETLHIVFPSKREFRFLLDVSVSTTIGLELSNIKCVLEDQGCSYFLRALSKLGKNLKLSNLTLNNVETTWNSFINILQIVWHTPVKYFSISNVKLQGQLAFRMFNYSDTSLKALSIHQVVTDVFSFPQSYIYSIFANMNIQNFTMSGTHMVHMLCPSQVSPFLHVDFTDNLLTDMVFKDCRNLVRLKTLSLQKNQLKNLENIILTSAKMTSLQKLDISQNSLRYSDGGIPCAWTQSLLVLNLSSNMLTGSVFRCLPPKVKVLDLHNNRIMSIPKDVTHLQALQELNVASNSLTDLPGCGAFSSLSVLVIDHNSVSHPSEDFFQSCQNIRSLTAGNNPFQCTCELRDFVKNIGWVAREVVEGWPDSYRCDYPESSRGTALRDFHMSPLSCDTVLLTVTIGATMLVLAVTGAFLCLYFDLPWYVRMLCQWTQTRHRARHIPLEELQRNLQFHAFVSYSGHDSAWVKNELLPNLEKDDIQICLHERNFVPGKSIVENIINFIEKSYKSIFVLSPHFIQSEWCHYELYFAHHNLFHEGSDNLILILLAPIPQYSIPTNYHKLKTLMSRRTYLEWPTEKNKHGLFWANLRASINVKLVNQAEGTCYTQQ
# Description: After 24 hours IL-6 production was measured by ELISA. […] After 24 hours TNF-α production was measured by ELISA.
# [4] = test system: human peripheral blood mononuclear cells (PBMC); test: BP2992 cytokine production from human PBMC; type: cell-based; details: 0.01-1 μg/ml, 24 h, two donors
# Description: PBMC from two human donors (A and B) were treated with BP2992 (0.01-1 μg/ml), After 24 h, the concentrations of TNF-α in supernatants were determined by ELISA.
# [5] = test system: C3H/HeJ mice; test: Antigenicity of BP1569: footpad immunization, lymph node cell re-stimulation; type: in vivo; details: 10 μg footpad
# Description: (§1) After 3 h serum IL-12 and IL-6 concentrations were quantified by ELISA. […] After seven days the draining lymph node was harvested and cells were stimulated with BP1569 (2 μg/ml). […] After seven days the draining lymph node was harvested and cells were stimulated with total heat killed B. pertussis 1-100×10^6/ml).
# C3H/HeJ mice were injected into the footpad with BP1569 (10 μg) diluted in PBS or with PBS only. After seven days the draining lymph node was harvested and the lymph node cells were stimulated with either BP1569 (2 μg/ml) or heat killed B. pertussis pertussis (1-100×10^6/ml). After 3 days of culture, the concentration of IFN-γ in supernatants was quantified by ELISA.
# The possibility that BP1569 was immunogenic in vivo and capable of inducing B. pertussis-specific immune responses was examined. C3H/HeJ mice were injected into the footpad with BP1569 (10 μg) diluted in PBS or with PBS only. After seven days the draining lymph node was harvested and the lymph node cells were stimulated with either BP1569 (2 μg/ml) or heat killed B. pertussis.
# [6] = test system: bone marrow-derived DCs from TLR4-defective C3H/HeJ mice; test: Cytokine production by bone marrow-derived DC stimulated with BP1569 (ELISA); type: cell-based; details: BP1569 100 and 1000 ng/ml, 24 h
# Description: (§2) Lipase-treated or untreated BP1569 (100 ng/ml) was used to stimulate BMDC from C3H/HeJ mice.
# (§3) Bone marrow derived dendritic cells (DCs) were prepared by culturing bone marrow cells obtained from the femur and tibia of mice in complete RPMI (cRPMI, RPMI containing 10% fetal calf serum, 100 U/ml penicillin, 100 μg/ml streptomycin, 2 mM 1-glutamine (Invitrogen), and 50 μM 2-ME (Sigma-Aldrich) supplemented with GM-CSF 40 ng/ml. Cells were re-cultured with fresh medium containing 40 ng/ml GM-CSF every 3 d for a period of 8 d. DC were seeded at 1×10^6 cells per ml 24 hr prior to stimulation. ELISA assays were performed using R&D kits according to the manufacturer's instructions. Spleen cells from C3H/HeJ mice were seeded at 2×10^6 cells per ml and stimulated with Pam3Cys4 (120nM) or BP1569 (120 nM) for the indicated times, with or without addition of T2.5-anti-TLR2 antibody or an isotype control (Hycult Biotech). For p38 activation assays, samples were lysed with RIPA buffer and SDS-PAGE was performed followed by Western blotting with anti-phospho-p38 and β-actin antibodies (Cell Signaling).
# (§4) The present inventors examined the capacity of pertussis lipoprotein to activate innate immune cells in vitro using bone marrow-derived DCs from TLR4-defective C3H/HeJ mice. […] Furthermore, stimulation of DCs with BP1569 for 24 hours enhanced surface expression of MHC class II, CD80 and CD86 detectable by flow cytometry (FIG. 2C).
# [7] = test system: C3H/HeJ mice; test: Cytokine induction in vivo by BP1569 (serum ELISA); details: 70 μg intraperitoneally, 3 h, versus PBS controls
# Description: as §1
# C3H/HeJ mice were treated intraperitoneally with BP1569 (70 μg) or PBS control and serum cytokines were measured by ELISA after 3h.
# C3H/HeJ mice were treated intraperitoneally with BP1569 (70 μg) and serum cytokines were measured after 3 h.
# [8] = molecular target: T2, human TLR2 (Homo sapiens, UniProt O60603+Q15399); test: IL-8 production by TLR2 transfected HEK 293T cells; type: cell-based; details: HEK 293T-TLR2, 24 h
# T2 construct: expressed in transfected cells; host or cells: HEK 293T
# T2 sequence (O60603 21-784): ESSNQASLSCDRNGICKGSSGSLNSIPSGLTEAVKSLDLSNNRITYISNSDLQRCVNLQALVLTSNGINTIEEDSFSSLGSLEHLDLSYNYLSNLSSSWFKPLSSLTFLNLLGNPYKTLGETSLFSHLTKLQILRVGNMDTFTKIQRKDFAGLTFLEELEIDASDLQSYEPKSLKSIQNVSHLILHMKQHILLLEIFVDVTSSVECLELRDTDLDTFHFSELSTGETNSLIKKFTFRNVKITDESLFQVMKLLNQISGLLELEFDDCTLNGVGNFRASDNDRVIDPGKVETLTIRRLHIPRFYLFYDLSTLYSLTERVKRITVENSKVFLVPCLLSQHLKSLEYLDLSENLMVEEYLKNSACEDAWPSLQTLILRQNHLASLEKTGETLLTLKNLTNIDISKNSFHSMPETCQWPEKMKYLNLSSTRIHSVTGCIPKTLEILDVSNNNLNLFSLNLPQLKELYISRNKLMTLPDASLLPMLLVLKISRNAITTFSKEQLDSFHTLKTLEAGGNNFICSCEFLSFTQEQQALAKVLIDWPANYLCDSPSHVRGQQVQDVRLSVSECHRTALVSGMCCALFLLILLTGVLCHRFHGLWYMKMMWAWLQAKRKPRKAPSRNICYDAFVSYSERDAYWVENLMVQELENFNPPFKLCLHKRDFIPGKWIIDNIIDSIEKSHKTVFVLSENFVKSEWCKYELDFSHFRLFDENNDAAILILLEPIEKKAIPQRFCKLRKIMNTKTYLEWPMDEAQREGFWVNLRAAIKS
# T2 sequence (Q15399 25-786): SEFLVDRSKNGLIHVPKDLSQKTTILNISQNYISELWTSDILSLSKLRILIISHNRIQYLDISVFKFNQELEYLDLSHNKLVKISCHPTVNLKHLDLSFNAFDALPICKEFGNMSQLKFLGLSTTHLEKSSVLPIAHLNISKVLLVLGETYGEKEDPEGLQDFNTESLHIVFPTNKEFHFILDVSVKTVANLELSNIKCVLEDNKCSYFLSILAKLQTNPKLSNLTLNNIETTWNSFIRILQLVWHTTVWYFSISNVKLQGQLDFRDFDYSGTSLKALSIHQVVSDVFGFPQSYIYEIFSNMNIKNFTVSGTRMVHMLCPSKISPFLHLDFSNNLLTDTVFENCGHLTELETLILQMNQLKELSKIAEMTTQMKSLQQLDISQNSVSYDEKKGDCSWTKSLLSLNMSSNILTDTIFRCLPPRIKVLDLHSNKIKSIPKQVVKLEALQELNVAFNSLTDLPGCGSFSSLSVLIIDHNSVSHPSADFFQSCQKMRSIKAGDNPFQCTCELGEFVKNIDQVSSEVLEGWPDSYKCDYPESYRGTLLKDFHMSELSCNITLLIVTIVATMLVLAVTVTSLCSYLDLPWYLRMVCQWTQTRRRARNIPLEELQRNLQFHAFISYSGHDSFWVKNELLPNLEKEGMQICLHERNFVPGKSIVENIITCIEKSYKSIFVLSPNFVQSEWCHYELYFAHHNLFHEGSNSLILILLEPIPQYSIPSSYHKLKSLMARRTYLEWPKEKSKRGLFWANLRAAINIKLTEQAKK
# Description: (§5) Luciferase activity was quantified after 24 h. […] IL-8 production was quantified after 24 h. […] After 24 h, the concentrations of IL-6 in supernatants were determined by ELISA.
# (§6) Cytokine production by TLR2 requires activation of the transcription factors NF-κB and p38 MAP kinase. To determine if BP1569 activates NF-κB, HEK 293T cells stably expressing TLR2, but devoid of TLR4, were transfected with an NF-κB luciferase reporter construct. […] To assess activation of the MAP kinase pathway, spleen cells from C3H/HeJ mice were stimulated with BP1569. […] TLR agonists can bind to TLR1/2 or TLR2/6 heterodimers, therefore, the role of these TLRs using specific blocking antibodies to human TLR1 and TLR6 was examined.
# [9] = test system: p38 MAP kinase; test: p38 phosphorylation in spleen cells (Western blot); type: cell-based; details: spleen cells from C3H/HeJ mice
# Description: as §5, §3
# Cytokine production by TLR2 requires activation of the transcription factors NF-κB and p38 MAP kinase. […]
# [10] = molecular target: T1, TLR2; test: BP1569-induced TNF-α production by DC with TLR2 blocking antibody; type: cell-based, mice; details: BP1569 100 ng/ml, 24 h, anti-TLR2 T2.5 2.5 μg/ml
# Description: as §2
# (§7) Blocking antibodies were used against TLR2 to determine if the proteins can activate TLR2 specifically. […] Lipase treatment was used to confirm that the immunostimulatry effects of BP1569 were due the presence of the characteristic acyl side chain of the lipoprotein. The recombinant lipoprotein was incubated with two separate lipases for 18 h prior to stimulation of DC. Lipase treatment abolished BP1569-induced IL-12p40 and IL-6 production (FIG. 2E), but had no effect on cytokine production induced by the TLR9 agonist CpG (data not shown), confirming that BP1569 contains lipid side chains capable of triggering TLR2-induced inflammatory cytokine production.
# [11] = molecular target: T2, human TLR2; test: NF-κB luciferase reporter assay in HEK 293T cells stably expressing TLR2; type: cell-based; details: 100 ng/ml, HEK 293T-TLR2, devoid of TLR4
# Description: as §5
# HEK 293T cells stably expressing human TLR2 were transfected with an NF-κB luciferase construct as described previously (21) and stimulated overnight with the indicated concentrations of BP1569.
# as §6
# [12] = molecular target: T3, human TLR1 (Homo sapiens, UniProt O60603+Q15399); test: BP1569-induced IL-6 in human PBMC with TLR1 blocking antibody; type: cell-based; details: 100 ng/ml, 24 h
# T3 construct: endogenous in cells; host or cells: human PBMC
# T3 sequence (Q15399 25-786): as above
# T3 sequence (O60603 21-784): as the sequence (O60603 21-784) above
# Description: as §5, §6
# [13] = test system: BMDC from C3H/HeJ mice; test: Lipase treatment of lipoprotein before stimulation of DC; type: cell-based; details: lipase from Aspergillus or Pseudomonas, 18 h
# Description: as §2, §7
# [14] = molecular target: T4, human TLR6 (Homo sapiens, UniProt Q9Y2C9); test: BP1569-induced IL-6 in human PBMC with anti-TLR6 antibody; type: cell-based; details: 100 ng/ml, 24 h
# T4 construct: endogenous in cells; host or cells: human PBMC
# T4 sequence (O60603 21-784 partner): as the sequence (O60603 21-784) above
# T4 sequence (Q9Y2C9 32-796): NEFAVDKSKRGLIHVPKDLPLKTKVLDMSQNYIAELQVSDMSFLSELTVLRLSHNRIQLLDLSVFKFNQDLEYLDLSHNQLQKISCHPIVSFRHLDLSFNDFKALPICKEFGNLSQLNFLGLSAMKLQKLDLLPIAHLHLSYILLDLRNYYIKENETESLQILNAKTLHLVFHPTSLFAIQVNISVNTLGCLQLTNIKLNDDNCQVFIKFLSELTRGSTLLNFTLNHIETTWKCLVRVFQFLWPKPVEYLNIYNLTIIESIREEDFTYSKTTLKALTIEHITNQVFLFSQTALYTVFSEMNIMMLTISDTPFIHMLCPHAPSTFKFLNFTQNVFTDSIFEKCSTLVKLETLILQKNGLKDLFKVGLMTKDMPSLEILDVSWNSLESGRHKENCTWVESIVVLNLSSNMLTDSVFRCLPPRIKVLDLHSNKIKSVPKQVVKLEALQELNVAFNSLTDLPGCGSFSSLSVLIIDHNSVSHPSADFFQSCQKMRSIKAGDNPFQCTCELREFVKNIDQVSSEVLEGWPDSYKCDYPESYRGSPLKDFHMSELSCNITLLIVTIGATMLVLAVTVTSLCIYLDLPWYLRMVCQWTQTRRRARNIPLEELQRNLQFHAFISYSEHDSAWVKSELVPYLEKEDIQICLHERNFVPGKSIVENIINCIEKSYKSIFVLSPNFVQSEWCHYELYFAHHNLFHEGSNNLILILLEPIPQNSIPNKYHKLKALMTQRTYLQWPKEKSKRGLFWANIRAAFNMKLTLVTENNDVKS
# Description: as §5, §6
# [15] = test system: DC from C3H/HeJ mice; test: DC maturation: surface expression of MHC class II, CD80, CD86 by flow cytometry; type: cell-based; details: 100 ng/ml, 24 hours vs medium only
# Description: as §2
# Following stimulation, DC were stained with CD11c (clone N418; eBioscience), MHCII (clone M5/114.15.2 ebioscience), CD80 (clone 16-10A1 eBioscience) and CD86 (clone […] eBioscience). Samples were analyzed with a FACS DIVA and FloJo software.
# as §4
molecule,measurement,setting,value
"BP2992: full length B. pertussis lipoprotein BP2992, ~16 kDa (protein, listed as Bordetella pertussis) NYMHSPSVVAGRARRLLAVAAVAGSVAVLAGCANPSASSGVYTYGQAQREQIVRTGTVTGVRPITIQNDKSSGVGLVAGGALGGVAGNAVGGGTGRTIATVGGVILGALAGNAIENRAGKSSGYEITVRLDNGETRVVAQEADVPISVGQRVQVISGAGPTRVTPY","maturation of dendritic cells (MHC class II, CD80, CD86)",[1]; 100 ng/ml,induces
same,pro-inflammatory cytokine production by dendritic cells,"[1]; 50, 100 and 1000 ng/ml",induces
same,ligand activity for TLR2,[2],immunologically active ligand for TLR2
same,"TLR2 dependence of pro-inflammatory cytokine production by DCs (IL-6, TNF-α)",[3],in a TLR2 dependent manner
same,pro-inflammatory cytokine production (TNF-α) from human PBMC,[4],induces
"BP1569: full length B. pertussis lipoprotein BP1569, ~40 kDa, TLR2 agonist (protein, listed as Bordetella pertussis) MRMNKRHAGASALMALALLAGCSDVNQLLGNEESVDYKSTRRGDPLSIPPDLTQANNDPRYKAPASGTATYSQFQQQGLQQQASAGQNTNVLPERADMRVERDGDLRWLVIERPPEQLFSKVVDFWTDTGFTVSVNNPQAGIIETDWAENRAKIPESWLRQVLGSVLETAWDSGEREKFRTRVERVNGHTEIYITHNQMLEKRVGSDGGQVQWTHGKEDPGLNAAMLARLMVYLGTDVDAARKLVAQAEAAPQAPKVQSVRAEGAMLVVDESFDRAWRRVGVALDSGGFAVDDRDRSAGEYFVRYVDTDTGAQNEQPGFFSRLFSSDKKAQAPQYRIRLTGSGTQTQVTVLDANGQRDSSATAQRMLSVLKDKMV",BP1569-specific IFN-γ by lymph node cells,"[5]; day 7, re-stimulated with BP1569 2 μg/ml",induced at significant levels
same,IFN-γ upon re-stimulation with heat killed B. pertussis,[5]; day 7 lymph node cells,produced IFN-γ
same,IL-6 production by DC,[6],induced robust
same,IL-12 production by DC,[6],induced robust
same,IL-23 production by DC,[6],induced robust
same,TNF-α production by DC,[6],induced robust
same,serum IL-6,[7],Significant concentrations
same,serum IL-12,[7],Significant concentrations
same,IL-8 production,[8],increased
same,p38 phosphorylation,[9]; 15 minutes following stimulation,enhanced
same,p38 phosphorylation with anti-TLR2 blocking antibody,[9]; T2.5 2.5 μg/ml,inhibited
same,BP1569-induced TNF-α production in the presence of the TLR2 blocking antibody,[10],completely abrogated
same,luciferase activity (NF-κB reporter),[11],significant increase
same,BP1569-induced IL-6 production with TLR1 blocking antibody,[12],significantly reduced
same,effect of lipase treatment on induced IL-6 production,[13]; 100 ng/ml on DC,abolished
same,effect of lipase treatment on induced IL-12p40 production,[13]; then DC stimulation,abolished
same,BP1569-induced IL-6 production with anti-TLR6 antibody,[14],little effect
same,surface expression of CD80,[15],enhanced
same,surface expression of CD86,[15],enhanced
same,surface expression of MHC class II,[15],enhanced
